The record followed here is patent publication US20210032353A1 (NATIONAL HEALTH RESEARCH INSTITUTES, published 2021).

One test addresses T1, VEGFR3 IgD3-4 (UniProt P35916 219-415, limits assumed).
T1 construct: domain: IgD3-4; also called VEGFR3-ED Ig D3-4-myc; not shown: myc tag (pCMV6-XL6-myc vector)
T1 sequence (looked up): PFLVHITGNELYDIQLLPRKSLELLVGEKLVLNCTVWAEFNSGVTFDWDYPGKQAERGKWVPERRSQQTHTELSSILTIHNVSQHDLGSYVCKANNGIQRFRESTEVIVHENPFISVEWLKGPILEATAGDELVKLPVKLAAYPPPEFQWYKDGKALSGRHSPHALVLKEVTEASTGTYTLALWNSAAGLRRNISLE
Put plainly: native gel electrophoresis and immunoblot. (In general: Immunoblotting shows a protein as a band on a membrane.)

A further test deals with T2, VEGFR2 (KDR)-IgD 6-7 (UniProt P35968 551-753).
T2 construct: domain: IgD6-7; GST-tagged recombinant protein from E. coli by the methods; also called recombinant IgD6-7 of VEGFR2; VEGFR2-ED Ig D6-7; not shown: GST tag from the pGEX-4T-1 vector
Put plainly: Biacore; antibody as flow analyte, KDR-IgD6-7 as ligand. For orientation: Surface plasmon resonance follows binding to a sensor surface in real time, without labels.

For a further test, the target named is T3, VEGFR3 (Flt-4)-IgD 6-7 (UniProt P35916 555-764, limits assumed).
T3 construct: domain: IgD6-7; also called R3-IgD6-7; VEGFR3-ED Ig D6-7-myc; not shown: myc tag (pCMV6-XL6-myc vector)
T3 sequence (looked up): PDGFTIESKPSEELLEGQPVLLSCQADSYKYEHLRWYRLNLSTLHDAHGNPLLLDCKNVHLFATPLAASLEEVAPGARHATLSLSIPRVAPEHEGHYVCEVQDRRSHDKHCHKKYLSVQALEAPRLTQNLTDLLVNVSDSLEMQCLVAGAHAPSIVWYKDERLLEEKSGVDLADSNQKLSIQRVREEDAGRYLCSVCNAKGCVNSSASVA
Briefly: Biacore; antibody as flow analyte, Flt 4-IgD6-7 as ligand.

A further test concerns the target T4, R3-IgD4 (human, UniProt P35916).
T4 construct: recombinant fragment; also called immunoglobin-like domain 4 of VEGFR3
T4 sequence (receptor fragment, looked up): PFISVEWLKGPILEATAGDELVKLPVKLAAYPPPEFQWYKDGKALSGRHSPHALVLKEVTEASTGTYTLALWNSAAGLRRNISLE
Put plainly: cell-based competitive ELISA: R2C7-1 absorbed with the soluble domain, then bound to 293T/VEGFR3 cells, OD405. How it is done: (§1) Panel A, Cell-based competitive. ELISA. HEK293T cells expressing VEGFR3 (293T/VEGFR3) were coated in 96-well plates. The optimal concentrations of R2C7-1 and R2C9-11 mAbs were determined as described previously (data now shown). The optimal concentrations of R2C7-1 and R2C9-11 mAbs were absorbed with the designed doses of the individual immunoglobin-like domains of VEGFR3 (R3-IgDs) antigens, as indicated. The bound antibodies were immune-probed with secondary antibody conjugated with HRP, visualized by addition of ABTS, and measured at OD₄₀₅ using a microplate reader (SpectraMax). Data are represented as means±S.D. of percentage of isotype control (CTL) in triplicate. The epitope locations of R2C7-1 and R2C9-11 on the VEGFR3 antigen are indicated by the black lines spanning IgD6 in the schematics. Panel B, Native gel electrophoresis. The whole extracellular domain (R3-IgD1-7), domain 3-4 (R3-IgD3-4) and domain 6-7 (R3-IgD6-7) were constructed, expressed in the E. coli, and purified using the anti-Myc affinity purification system. The purity and molecular weight of each recombinant protein were visualized with a standard Western blot using anti-Myc antibody as probe (left). The binding of R2C7-1 and R2C9-11 to the VEGFR3 truncated antigens was evaluated with native gel electrophoresis to confirm the epitopes of R2C7-1 and R2C9-11 mAbs (middle and right, respectively).
(§2) The same methodology was adopted to define the epitopes of the antibodies on VEGFR3. To determine the optimal concentrations of the antibodies for VEGFR3, HEK293T/VEGFR3 transfectants were used as targets (data not shown). Subsequently, the antibodies with optimal concentrations were absorbed with individual recombinant extracellular domains of VEGFR3 (R3-IgDs) for competing the binding epitopes. Similarly, their major epitopes were both located in IgD6, but not in IgD7, of VEGFR3. To conform this finding, Western blotting analysis of different recombinant IgD proteins was carried out using native gel electrophoresis.
On the technique in general: In an ELISA, binding on a coated surface is turned into a signal by an enzyme label.

Another test addresses T5, R3-IgD7 (human, UniProt P35916).
T5 construct: recombinant fragment; also called immunoglobin-like domain 7 of VEGFR3
T5 sequence (receptor fragment, looked up): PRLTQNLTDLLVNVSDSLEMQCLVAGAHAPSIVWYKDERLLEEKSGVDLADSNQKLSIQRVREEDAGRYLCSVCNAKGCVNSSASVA
The description is as above. How it is done:
as §1, §2

The target in another test is T6, R2-IgD4-5 (human, UniProt P35968).
T6 construct: recombinant fragment; also called immunoglobin-like domains 4-5 of VEGFR2
Put plainly: cell-based competitive ELISA: R2C7-1 absorbed with the soluble domains, then bound to fixed 293T/VEGFR2 cells, OD405. How it is done:
The optimal concentration of R2C7-1 and R2C9-11 mAbs (200 μg/mL and 50 μg/mL, respectively) were absorbed with the designated doses of the individual immunoglobin-like domains of VEGFR2 (R2-IgDs) antigens. After, the fixed 293T/VEGFR2 cells were incubated with the absorbed antibodies at 37° C. for 30 min. The bound antibodies were probed with goat-anti-mouse IgG conjugated with HRP, visualized by addition of ABTS, and measured at OD₄₀₅ using the SpectraMax microplate reader. Data are represented as means±S.D. of the percentage of isotype control (CTL) in triplicate. The potential epitope locations of R2C7-1 (upper) and R2C9-11 (lower) on the VEGFR2 antigen are indicated by black lines spanning IgD6 and IgD7 in the schematics.
To define the recognition epitopes of R2C7-1 and R2C9-11 antibodies, cell-based competitive enzyme-linked immunosorbent assay (ELISA) was performed. HEK293T/VEGFR2 transfectants (5 X×10⁴/well) were coated and fixed on 96-well plates. The optimal concentrations, the highest concentration of the log phase, of R2C7-1 and R2C9-11 antibodies for binding to the cells, were determined using a standard ELISA procedure (data not shown). […]
The epitopes of R2C7-1 and R2C9-11 anti-VEGFR2 antibodies were determined by cell-based competitive ELISA. […]

T2 sequence (P35968 551-753): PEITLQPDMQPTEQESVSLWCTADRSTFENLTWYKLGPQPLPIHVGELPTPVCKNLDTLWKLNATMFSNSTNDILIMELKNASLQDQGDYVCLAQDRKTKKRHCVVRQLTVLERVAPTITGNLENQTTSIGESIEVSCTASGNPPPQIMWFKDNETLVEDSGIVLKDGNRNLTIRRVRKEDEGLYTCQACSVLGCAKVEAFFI
T6 sequence (P35968 328-548 limits assumed): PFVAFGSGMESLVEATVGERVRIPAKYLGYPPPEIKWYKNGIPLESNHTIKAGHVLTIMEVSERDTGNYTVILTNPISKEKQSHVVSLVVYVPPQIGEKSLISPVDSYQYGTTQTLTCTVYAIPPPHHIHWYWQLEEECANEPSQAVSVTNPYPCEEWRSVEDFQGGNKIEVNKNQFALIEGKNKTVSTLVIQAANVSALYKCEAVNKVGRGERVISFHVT

B1: R2C7-1 monoclonal antibody (antibody, V domains shown)
VH: EVQLQQSGPELVKPGASVKISCKASGYSFTDYFINWVIQRHGKSLEWVGRINPYNGGSFYNQKFKDKATLTVDKSSNIAHMELRSLASEDSAIYYCARSGGNGYDYWGQGTTLTVSS
VL: DIVMTQAAPSVPVIPGESVSISCRSSKSLLHSNGNTYLYWFLQRPGQSPQLLIYRMSNLASGVPDRFSGSGSGTAFTLRISRVEAEDVGVYYCMQHLEYPYTFGGGTKVEIK
notes: Mouse monoclonal antibody purified from hybridoma supernatant; An IgG2a isotype antibody served as its control; also called R2C7-1 mAb
Turning to B1, the binding result with VEGFR3 IgD3-4 is listed as “no binding”; in the test with R3-IgD4, “no binding (tested: 10 (unit not printed on the sheet))”; in the test with R3-IgD7, “no binding (tested: 10 (unit not printed on the sheet))”; in the test with R2-IgD4-5, “no binding (tested: 20 (unit not printed on the sheet))”. For the same molecule, the koff was determined as 1.1e-05 s⁻¹ with VEGFR2 (KDR)-IgD 6-7 and 0.0037 s⁻¹ with VEGFR3 (Flt-4)-IgD 6-7. Moreover, the on-rate constant (kon) with VEGFR3 (Flt-4)-IgD 6-7 is 280000 M⁻¹ s⁻¹.

As usually defined, the koff is the first-order rate constant of dissociation. As usually defined, the kon is the second-order rate constant of association. A lower kon goes with slow association.
